{"source": "paper PMC3896610", "binders": {"B1": {"name": "IgG1-F405L-EGFR (antibody, V domains shown)", "VH": "QVQLVESGGGVVQPGRSLRLSCAASGFTFSTYGMHWVRQAPGKGLEWVAVIWDDGSYKYYGDSVKGRFTISRDNSKNTLYLQMNSLRAEDTAVYYCARDGITMVRGVMKDYFDYWGQGTLVTVSS", "VL": "AIQLTQSPSSLSASVGDRVTITCRASQDISSALVWYQQKPGKAPKLLIYDASSLESGVPSRFSGSESGTDFTLTISSLQPEDFATYYCQQFNSYPLTFGGGTKVEIK"}}, "key": {"IgG1-K409R-CD20 (human) [1]": {"biological_target": "IgG1-K409R-CD20 (human)", "assay": "analytical cation-exchange chromatography"}, "IgG1-K409R-CD20 (human) [2]": {"biological_target": "IgG1-K409R-CD20 (human)", "assay": "analytical cation-exchange chromatography", "remark": "listed apart in the source"}}, "note": "Read-outs that look alike come from different tables or passages of the source."}
{"binder": "B1", "values": [{"measurement": "% bsIgG1-EGFRxCD20 by CIEX", "setting": "IgG1-K409R-CD20 (human) [1]", "result": 96.3, "unit": "%"}, {"measurement": "% bsIgG1-EGFRxCD20 by CIEX", "setting": "IgG1-K409R-CD20 (human) [2]", "result": 95, "unit": "%"}]}
